{"source": "patent US20250236644A1", "about": "(University of Washington, published 2025)", "binders": {"B1": {"name": "swapped target hinge csw13 (designed binder)", "chain": "MSGNEEVKKLVEEAKKYLKEAEEYIKKAKKTGNEELLEKALKLLEKALELVKKAIELDPNNKEAIEQAVEIARALNEVAELLIEEAKKTGNEELLEKALEALEAANEALKLAIENNENDKELLAEIAVELAEVGVLLAEVLIEEAKKTGDPELLKLALEVLEAAVEALELALKLDPNNEEAVELAEEAAKLLEEVAKELKEEAKKTGDPELEKLAKEAEELAKRAKELAERQRGSGSHHWGSTHHHHHH"}}, "assay_in_all_cases": "FP titration, 1 nM peptide, hinge varied", "key": {"[1]": {"biological_target": "T1, TAMRA-labeled effector peptide js007B (5(6)-TAMRA label coupled on resin after synthesis)", "T1 construct": "also called TAMRA-js007B", "T1 peptide": "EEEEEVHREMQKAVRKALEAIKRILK", "description": "(§1) FIG. 10. Redesign of hinges to bind other target peptides. An experimentally tested hinge (top, cs201) is redesigned using a one-sided two-state design approach to bind to different target peptides. Hinges csw13 and csw20 are designed to bind to peptides cs221B and cs074B, respectively, while having a backbone conformation that is similar to the parent cs201 that binds cs201B. Left: design models, right: FP titrations using 1 nM peptide (cs201B, cs221B, cs074B, js007B) and varying concentrations of hinge (from top to bottom: cs201, csw13, csw20). csw13 is an example of a successful orthogonal redesign that specifically binds the new target peptide cs221B while not binding the parent target peptide cs201B or the off-target peptides cs074B or js007B. csw20 is a less orthogonal example that binds the new target peptide cs074B most strongly but still binds to the parent-target peptide cs201B and to the off-target peptide cs221B albeit weaker than the new target.\n(§2) All FP measurements were performed at 25° C. in 96-well plates (Corning 3686) using a Synergy Neo2™ plate reader and a 530/590 nm filter cube. The buffer for all FP measurements was 20 mM Tris-HCl, 100 mM NaCl, 0.05% v/v TWEEN20 at pH 8. Titrations were carried out in 96-well format, with 4 replicates per plate and 24 data points per titration (23 steps of two-fold serial dilution of hinges in the presence of TAMRA-labeled peptide at a constant concentration between 0.1 nM and 1 nM) with a final sample volume of 80 μl per well. Titration plates were incubated overnight at room temperature before measuring to ensure complete equilibration. The polarization signal S (as calculated by the Neo2™ software) was fitted to the equation"}, "[2]": {"biological_target": "T2, TAMRA-labeled effector peptide cs074B (5(6)-TAMRA label coupled on resin after synthesis)", "T2 construct": "Chemically synthesized; also called TAMRA-cs074B", "T2 peptide": "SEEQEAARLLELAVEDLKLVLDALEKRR", "description": "as §1, §2"}, "[3]": {"biological_target": "T3, TAMRA-labeled effector peptide cs201B (5(6)-TAMRA label coupled on resin after synthesis)", "T3 construct": "also called TAMRA-cs201B", "T3 peptide": "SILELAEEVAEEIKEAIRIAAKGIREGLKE", "description": "as §1, §2"}, "[4]": {"biological_target": "T4, TAMRA-labeled effector peptide cs221B (5(6)-TAMRA label coupled on resin after synthesis)", "T4 construct": "also called TAMRA-cs221B", "T4 peptide": "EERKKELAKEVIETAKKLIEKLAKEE", "description": "as §1, §2"}}}
{"binder": "B1", "values": [{"measurement": "binding result", "setting": "[1]", "result": "no binding"}, {"measurement": "binding result", "setting": "[2]", "result": "no binding"}, {"measurement": "binding result", "setting": "[3]", "result": "no binding"}, {"measurement": "binding result", "setting": "[4]", "result": "binds"}]}
